This is an account of results in patent US20060024313.

The target of this series is P27487.

B1: endogenous DPP-IV purified from human semen (sDPP-IV) (protein)
chain: SRKTYTLTDYLKNTYRLKLYSLRWISDHEYLYKQENNILVFNAEYGNSSVFLENSTFDEFGHSINDYSISPDGQFILLEYNYVKQWRHSYTASYDIYDLNKRQLITEERIPNNTQWVTWSPVGHKLAYVWNNDIYVKIEPNLPSYRITWTGKEDIIYNGITDWVYEEEVFSAYSALWWSPNGTFLAYAQFNDTEVPLIEYSFYSDESLQYPKTVRVPYPKAGAVNPTVKFFVVNTDSLSSVTNATSIQITAPASMLIGDHYLCDVTWATQERISLQWLRRIQNYSVMDICDYDESSGRWNCLVARQHIEMSTTGWVGRFRPSEPHFTLDGNSFYKIISNEEGYRHICYFQIDKKDCTFITKGTWEVIGIEALTSDYLYYISNEYKGMPGGRNLYKIQLSDYTKVTCLSCELNPERCQYYSVSFSKEAKYYQLRCSGPGLPLYTLHSSVNDKGLRVLEDNSALDKMLQNVQMPSKKLDFIILNETKFWYQMILPPHFDKSKKYPLLLDVYAGPCSQKADTVFRLNWATYLASTENIIVASFDGRGSGYQGDKIMHAINRRLGTFEVEDQIEAARQFSKMGFVDNKRIAIWGWSYGGYVTSMVLGSGSGVFKCGIAVAPVSRWEYYDSVYTERYMGLPTPEDNLDHYRNSTVMSRAENFKQVEYLLIHGTADDNVHFQQSAQISKALVDVGVDFQAMWYTDEDHGIASSTAHQHIYTHMSHFIKQCFSLP
With B1, the “specific activity after serial dilution (H-Gly-Pro-pNA hydrolysis)” value (shortened to “specific activity after serial dilution”) is “no decrease in specific activity were observed for either sDPP-IV or rDPP-IV even at a concentration as low as 1.6 nM”.

B2: recombinant wild-type human DPP-IV (rDPP-IV), amino acids 39 to 766, secreted from baculovirus-infected Hi5 insect cells (protein)
chain: SRKTYTLTDYLKNTYRLKLYSLRWISDHEYLYKQENNILVFNAEYGNSSVFLENSTFDEFGHSINDYSISPDGQFILLEYNYVKQWRHSYTASYDIYDLNKRQLITEERIPNNTQWVTWSPVGHKLAYVWNNDIYVKIEPNLPSYRITWTGKEDIIYNGITDWVYEEEVFSAYSALWWSPNGTFLAYAQFNDTEVPLIEYSFYSDESLQYPKTVRVPYPKAGAVNPTVKFFVVNTDSLSSVTNATSIQITAPASMLIGDHYLCDVTWATQERISLQWLRRIQNYSVMDICDYDESSGRWNCLVARQHIEMSTTGWVGRFRPSEPHFTLDGNSFYKIISNEEGYRHICYFQIDKKDCTFITKGTWEVIGIEALTSDYLYYISNEYKGMPGGRNLYKIQLSDYTKVTCLSCELNPERCQYYSVSFSKEAKYYQLRCSGPGLPLYTLHSSVNDKGLRVLEDNSALDKMLQNVQMPSKKLDFIILNETKFWYQMILPPHFDKSKKYPLLLDVYAGPCSQKADTVFRLNWATYLASTENIIVASFDGRGSGYQGDKIMHAINRRLGTFEVEDQIEAARQFSKMGFVDNKRIAIWGWSYGGYVTSMVLGSGSGVFKCGIAVAPVSRWEYYDSVYTERYMGLPTPEDNLDHYRNSTVMSRAENFKQVEYLLIHGTADDNVHFQQSAQISKALVDVGVDFQAMWYTDEDHGIASSTAHQHIYTHMSHFIKQCFSLP
B2: the “specific activity after serial dilution” value is on record as “no decrease in specific activity were observed for either sDPP-IV or rDPP-IV even at a concentration as low as 1.6 nM”.

B3: DPP-IV H750A mutant (protein)
chain: SRKTYTLTDYLKNTYRLKLYSLRWISDHEYLYKQENNILVFNAEYGNSSVFLENSTFDEFGHSINDYSISPDGQFILLEYNYVKQWRHSYTASYDIYDLNKRQLITEERIPNNTQWVTWSPVGHKLAYVWNNDIYVKIEPNLPSYRITWTGKEDIIYNGITDWVYEEEVFSAYSALWWSPNGTFLAYAQFNDTEVPLIEYSFYSDESLQYPKTVRVPYPKAGAVNPTVKFFVVNTDSLSSVTNATSIQITAPASMLIGDHYLCDVTWATQERISLQWLRRIQNYSVMDICDYDESSGRWNCLVARQHIEMSTTGWVGRFRPSEPHFTLDGNSFYKIISNEEGYRHICYFQIDKKDCTFITKGTWEVIGIEALTSDYLYYISNEYKGMPGGRNLYKIQLSDYTKVTCLSCELNPERCQYYSVSFSKEAKYYQLRCSGPGLPLYTLHSSVNDKGLRVLEDNSALDKMLQNVQMPSKKLDFIILNETKFWYQMILPPHFDKSKKYPLLLDVYAGPCSQKADTVFRLNWATYLASTENIIVASFDGRGSGYQGDKIMHAINRRLGTFEVEDQIEAARQFSKMGFVDNKRIAIWGWSYGGYVTSMVLGSGSGVFKCGIAVAPVSRWEYYDSVYTERYMGLPTPEDNLDHYRNSTVMSRAENFKQVEYLLIHGTADDNVHFQQSAQISKALVDVGVDFQAMWYTDEDHGIASSTAHQAIYTHMSHFIKQCFSLP
As for B3, the “specific activity after serial dilution” value is on record as “the specific activity of H750A protein was also constant over the range of 200 nM to 1.6 nM”.
